# Laboratory results: the RNAGym collection of RNA variant scans (doi:10.7554/elife.80360)
# B1: Hammerhead Ribozyme (parent)
# chain: ACCGGAUGUGCUUUCCGGUCUGAUGAGUCCGUGAGGACGAAACAG
# Variants of: B1
# Experiment: self-cleavage, relative activity (ratio to wild type); higher = more cleavage; co-transcriptional
row,Variant,self-cleavage
1,G5A U14G,1.41
2,G5A U14A,1.58
3,G5A U14C,1.49
4,G4U U9A,0.395
5,G4U U9G,0.368
6,G4U U9C,0.413
7,G4U G45U,0.446
8,G4U G45A,0.351
9,G4U G45C,0.324
10,G5A C30G,0.597
11,G5A C30A,1.08
12,G5A C30U,1.43
13,G5A G33C,1.22
14,G5A G33U,1.44
15,G5A G33A,1.44
16,G5C A40G,0.237
17,G5C A40U,0.23
18,G5C A40C,0.325
19,G4U C30G,0.305
20,G4U C30A,0.4
21,G4U C30U,0.558
22,G5A G39A,0.353
23,G5A G39C,0.328
24,G5A G39U,0.329

row,Variant,self-cleavage
1,G5A A37U,0.603
2,G5A A37G,0.773
3,G5A A37C,0.542
4,G5C A26C,0.282
5,G5C A26U,0.339
6,G5C A26G,0.267
7,G5C G25C,0.397
8,G5C G25U,0.307
9,G5C G25A,0.305
10,G4U C29A,0.265
11,G4U C29G,0.358
12,G4U C29U,0.413
13,G4U C43G,0.295
14,G4U C43A,0.272
15,G4U C43U,0.261
16,G4U C38U,0.315
17,G4U C38A,0.289
18,G4U C38G,0.323
19,G5C A41C,0.249
20,G5C A41G,0.27
21,G5C A41U,0.326
22,G5C A37U,0.238
23,G5C A37C,0.259
24,G5C A37G,0.44

row,Variant,self-cleavage
1,G5A U21G,0.378
2,G5A U21C,0.977
3,G5A U21A,0.57
4,G5C A6G,0.437
5,G5C A6U,0.631
6,G5C A6C,0.423
7,G4U G18C,0.275
8,G4U G18U,0.323
9,G4U G18A,0.297
10,G5C C38A,0.264
11,G5C C38G,0.278
12,G5C C38U,0.479
13,G5A G22A,0.322
14,G5A G22C,0.315
15,G5A G22U,0.325
16,G4U G17A,0.316
17,G4U G17U,0.294
18,G4U G17C,0.34
19,G4U U19C,0.345
20,G4U U19A,0.304
21,G4U U19G,0.343
22,G5A G35A,0.642
23,G5A G35U,0.848
24,G5A G35C,0.66

row,Variant,self-cleavage
1,G5A A40U,0.409
2,G5A A40G,0.379
3,G5A A40C,0.476
4,G5A G31C,1.32
5,G5A G31A,1.65
6,G5A G31U,1.61
7,G4U G5A,0.284
8,G4U G5U,0.359
9,G4U G5C,0.352
10,G5C C11A,0.761
11,G5C C11G,0.873
12,G5C C11U,0.336
13,G4U G33U,0.576
14,G4U G33A,0.608
15,G4U G33C,0.416
16,G5A G17U,0.452
17,G5A G17C,0.434
18,G5A G17A,0.397
19,G4U C20A,0.294
20,G4U C20G,0.272
21,G4U C20U,0.364
22,G4U G35A,0.337
23,G4U G35C,0.326
24,G4U G35U,0.388

row,Variant,self-cleavage
1,G4U U13C,0.634
2,G4U U13A,1.14
3,G4U U13G,0.725
4,G5C C29U,0.504
5,G5C C29A,0.256
6,G5C C29G,0.344
7,G5C G45A,0.384
8,G5C G45C,0.397
9,G5C G45U,0.382
10,G5C C20U,0.358
11,G5C C20A,0.271
12,G5C C20G,0.265
13,G5C C15G,1.13
14,G5C C15A,0.953
15,G5C C15U,1.31
16,G4U G10C,0.469
17,G4U G10U,0.558
18,G4U G10A,0.588
19,G5A G27U,0.538
20,G5A G27A,0.776
21,G5A G27C,0.61
22,G5C U7A,0.874
23,G5C U7G,0.611
24,G5C U7C,0.72

row,Variant,self-cleavage
1,G5A G45A,0.61
2,G5A G45U,0.587
3,G5A G45C,0.554
4,G5A G8C,0.954
5,G5A G8A,1.24
6,G5A G8U,1.33
7,G5A G36A,0.667
8,G5A G36C,0.384
9,G5A G36U,0.41
10,G4U G39A,0.263
11,G4U G39C,0.266
12,G4U G39U,0.29
13,G4U A44U,0.33
14,G4U A44G,0.789
15,G4U A44C,0.401
16,G4U A26C,0.35
17,G4U A26G,0.274
18,G4U A26U,0.378
19,G4U G8A,0.47
20,G4U G8U,0.933
21,G4U G8C,0.377
22,G5C G17A,0.313
23,G5C G17U,0.381
24,G5C G17C,0.268

row,Variant,self-cleavage
1,G5A A41U,0.327
2,G5A A41C,0.325
3,G5A A41G,0.327
4,G5A U7A,0.95
5,G5A U7G,1.56
6,G5A U7C,1.06
7,G5A U9G,0.88
8,G5A U9C,1.37
9,G5A U9A,1.27
10,G4U G31A,0.612
11,G4U G31U,0.75
12,G4U G31C,0.56
13,G5C G18A,0.293
14,G5C G18C,0.34
15,G5C G18U,0.307
16,G5A U19C,0.565
17,G5A U19G,0.373
18,G5A U19A,0.382
19,G5A G25A,0.327
20,G5A G25U,0.354
21,G5A G25C,0.268
22,G5A A26C,0.464
23,G5A A26G,0.398
24,G5A A26U,0.66

row,Variant,self-cleavage
1,G5A C29A,0.445
2,G5A C29G,0.464
3,G5A C29U,0.95
4,G5C G39A,0.252
5,G5C G39C,0.312
6,G5C G39U,0.251
7,G5C A34C,0.336
8,G5C A34U,0.477
9,G5C A34G,0.74
10,G4U A37G,0.305
11,G4U A37U,0.286
12,G4U A37C,0.329
13,G4U U28C,0.266
14,G4U U28A,0.234
15,G4U U28G,0.308
16,G5A A23G,0.385
17,G5A A23C,0.315
18,G5A A23U,0.304
19,G5A C38G,0.575
20,G5A C38A,0.65
21,G5A C38U,0.935
22,G4U U32G,0.316
23,G4U U32C,0.487
24,G4U U32A,0.507

row,Variant,self-cleavage
1,G5A A6G,0.82
2,G5A A6C,0.483
3,G5A A6U,0.696
4,G5A A44C,0.662
5,G5A A44U,0.532
6,G5A A44G,1.29
7,G5C U9A,0.595
8,G4U G22U,0.296
9,G4U G22A,0.297
10,G4U G22C,0.345
11,G4U A23U,0.333
12,G5C G33U,0.736
13,G5C G33A,0.776
14,G5C G33C,0.58
15,G4U G25U,0.253
16,G4U G25A,0.25
17,G4U G25C,0.339
18,G5A U28A,0.364
19,G5A U28G,0.377
20,G5A U28C,0.654
21,G5A C15A,1.32
22,G5A C15G,1.53
23,G5A C15U,1.78
24,G4U U21C,0.352

row,Variant,self-cleavage
1,G4U U21G,0.325
2,G4U U21A,0.342
3,G4U A34U,0.43
4,G4U A34C,0.296
5,G4U A34G,0.452
6,G4U U24A,0.442
7,G4U U24G,0.372
8,G4U U24C,0.549
9,G5A C43G,0.312
10,G5A C43A,0.34
11,G5A C43U,0.467
12,G5C C43U,0.316
13,G5C C43A,0.294
14,G5C C43G,0.33
15,G5A A42C,0.359
16,G5A A42G,0.387
17,G5A A42U,0.353
18,G5A U24C,1.43
19,G5A U24G,0.965
20,G5A U24A,1.21
21,G4U A42C,0.265
22,G4U A42U,0.307
23,G4U A42G,0.336
24,G5C G8A,0.619

row,Variant,self-cleavage
1,G5C G8U,0.693
2,G5C G8C,0.77
3,G5C G27C,0.354
4,G5C G27A,0.351
5,G5C G27U,0.321
6,G4U G36U,0.267
7,G4U G36A,0.321
8,G4U G36C,0.313
9,G4U U14C,0.416
10,G4U U14G,0.722
11,G4U U14A,0.469
12,G4U G27U,0.294
13,G4U G27C,0.35
14,G4U G27A,0.312
15,G4U U12A,0.547
16,G4U U12C,0.496
17,G4U U12G,0.564
18,G4U A40U,0.297
19,G4U A40C,0.224
20,G4U A40G,0.303
21,G4U C16A,1.07
22,G4U C16U,1.05
23,G4U C16G,1.09
24,G5C C30A,0.623

row,Variant,self-cleavage
1,G5C C30U,0.539
2,G5C C30G,0.314
3,G5A U32G,0.533
4,G5A U32A,1.32
5,G5A U32C,1.15
6,G4U A41U,0.308
7,G4U A41G,0.263
8,G4U A41C,0.276
9,G5C A42U,0.328
10,G5C A42C,0.356
11,G5C A42G,0.24
12,G4U U7G,0.381
13,G4U U7C,0.361
14,G4U U7A,0.432
15,G5A C11U,0.804
16,G5A C11A,1.43
17,G5A C11G,1.27
18,G5A G18C,0.386
19,G5A G18A,0.47
20,G5A G18U,0.371
21,G5C A44G,0.831
22,G5C A44C,0.345
23,G5C A44U,0.358
24,G5A G10U,1.73

row,Variant,self-cleavage
1,G5A G10A,1.54
2,G5A G10C,1.16
3,G4U C15G,0.436
4,G4U C15U,0.523
5,G4U C15A,0.425
6,G5A U13G,1.72
7,G5A U13C,1.6
8,G5A U13A,1.68
9,G5C G36U,0.33
10,G5C G36A,0.35
11,G5C G36C,0.357
12,G5C G22U,0.299
13,G5C G22A,0.263
14,G5C G22C,0.243
15,G5C G35U,0.376
16,G5C G35C,0.324
17,G5C G35A,0.362
18,G4U C11U,0.319
19,G4U C11G,0.52
20,G4U C11A,0.502
21,G5C G10C,0.441
22,G5C G10A,0.638
23,G5C G10U,0.64
24,G5A C16A,1.56

row,Variant,self-cleavage
1,G5A C16U,1.54
2,G5A C16G,0.931
3,G5A C20A,0.415
4,G5A C20G,0.286
5,G5A C20U,1.01
6,G5C G31A,0.855
7,G5C G31C,0.613
8,G5C G31U,1.02
9,G5C C16G,0.716
10,G5C C16U,0.883
11,G5C C16A,1.19
12,G5A,1.32
13,G5C,0.669
14,G5A A34C,1.1
15,G5A A34U,1.06
16,G5A A34G,1.2
17,G5C A23U,0.221
18,G5C A23G,0.324
19,G5C A23C,0.326
20,G5A U12C,1.07
21,G5A U12G,1.31
22,G5A U12A,1.22
